Reference: patent US20210206877A1

Target: BACE1 endogenous to primary cortical neurons from E16.5 CD1 mice (mouse) (UniProt P56818)
Experiment: cell-based or functional assay

BACE1 endogenous to primary cortical neurons from E16.5 CD1 mice (mouse), sequence (P56818 46-501): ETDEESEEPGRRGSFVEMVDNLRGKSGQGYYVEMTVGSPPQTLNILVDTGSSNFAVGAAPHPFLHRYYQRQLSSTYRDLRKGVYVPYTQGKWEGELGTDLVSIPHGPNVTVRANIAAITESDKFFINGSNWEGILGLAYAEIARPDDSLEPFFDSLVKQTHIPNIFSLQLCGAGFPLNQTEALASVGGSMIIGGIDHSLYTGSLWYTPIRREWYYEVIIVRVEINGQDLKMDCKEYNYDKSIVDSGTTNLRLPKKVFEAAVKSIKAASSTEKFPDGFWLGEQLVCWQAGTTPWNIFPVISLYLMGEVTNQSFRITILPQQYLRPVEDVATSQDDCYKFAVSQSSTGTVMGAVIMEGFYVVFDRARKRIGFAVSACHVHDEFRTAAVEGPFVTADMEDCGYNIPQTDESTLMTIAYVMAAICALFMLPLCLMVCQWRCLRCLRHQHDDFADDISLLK

antibody YW412.8.31
IC50, inhibition of Aβx-40 production in primary mouse cortical neuron cultures (sandwich ELISA of supernatants): 2.9 nM | maximum inhibition of Aβx-40 production in primary mouse cortical neuron cultures: 62%
